Measured values reported in the RNAGym collection of RNA variant scans (doi:10.1021/acssynbio.7b00057).

B1: Pistol ribozyme (parent)
chain: GGGUCGUUGUUCCAUAAUCGCGUGGAUAUGGCACGCAAGUUUCUACCGGGCACCGUAAAUGUCCGACUGGAGCCGUUCGGGCGGCUAUAAACAGACCUCAGGCCCGAAGCGUGGCGGCACCUGCCGCCGGUGGUAAAAAAGAUCGGAAGAGCACACGUCU

Variants of: B1
Test: aptazyme ON/OFF ratio, guanine; higher = stronger switching; co-transcriptional cleavage with and without guanine

Row | Variant | aptazyme ON/OFF ratio
1 | U8A U10C U11C C12A | 1.08
2 | U8A U10C U11C C12G | 1.27
3 | U8A U10C U11C C12U | 1.06
4 | U8A G9U U10G U11A C13A | 1.02
5 | U8A G9U U10G U11A C13U | 1.03
6 | U8A G9U U10G U11A C13G | 1.03
7 | U8A U10C U11G C12A C13G | 1.23
8 | U8A U10C U11G C12A C13A | 1.26
9 | U8A U10C U11G C12A C13U | 1.25
10 | U8A U10A C12G C13G | 1.19
11 | U8A U10A C12G C13U | 1.37
12 | U8A U10A C12G C13A | 1.15
13 | U8A U10G C12A | 1.31
14 | U8A U10G C12G | 1.29
15 | U8A U10G C12U | 1.58
16 | U8A U10A U11A C12U | 1.09
17 | U8A U10A U11A C12G | 1.07
18 | U8A U10A U11A C12A | 1.14
19 | U8A U10A U11C C13A | 1.03
20 | U8A U10A U11C C13G | 1.02
21 | U8A U10A U11C C13U | 1.04

Row | Variant | aptazyme ON/OFF ratio
22 | U8A G9U U10G C12G | 1.13
23 | U8A G9U U10G C12U | 1.13
24 | U8A G9U U10G C12A | 1.18
25 | U8A G9U U11A C12A C13A | 1.22
26 | U8A G9U U11A C12A C13U | 1.38
27 | U8A G9U U11A C12A C13G | 1.18
28 | U8A G9U U10C U11C C12A C13A | 1.01
29 | U8A G9U U10C U11C C12A C13U | 1.04
30 | U8A G9U U10C U11C C12A C13G | 1.05
31 | U8A G9U U10C U11A C12A C13U | 1.17
32 | U8A G9U U10C U11A C12A C13G | 1.12
33 | U8A G9U U10C U11A C12A C13A | 1.14
34 | U8A U10C U11C C12A C13A | 1.18
35 | U8A U10C U11C C12A C13U | 1.07
36 | U8A U10C U11C C12A C13G | 1.14
37 | U8A U10A C12A C13A | 1.19
38 | U8A U10A C12A C13U | 1.18
39 | U8A U10A C12A C13G | 1.08
40 | U8A U10G U11C C12A C13A | 1.26
41 | U8A U10G U11C C12A C13G | 1.14
42 | U8A U10G U11C C12A C13U | 1.21

Row | Variant | aptazyme ON/OFF ratio
43 | U8A G9U U11C C12U C13U | 1.16
44 | U8A G9U U11C C12U C13A | 1.2
45 | U8A G9U U11C C12U C13G | 1.06
46 | U8A U10A C12U C13G | 1.13
47 | U8A U10A C12U C13U | 1.25
48 | U8A U10A C12U C13A | 1.21
49 | U8A U10A U11A C12A C13A | 1.21
50 | U8A U10A U11A C12A C13U | 1.11
51 | U8A U10A U11A C12A C13G | 1.04
52 | U8A G9U U11A C12G | 1.09
53 | U8A G9U U11A C12A | 1.28
54 | U8A G9U U11A C12U | 1.47
55 | U8A U10A U11C | 1
56 | U8A U10A U11A | 1.14
57 | U8A U10A U11G | 1.17
58 | U8A G9U U10C U11A | 1.34
59 | U8A G9U U10C U11G | 1.34
60 | U8A G9U U10C U11C | 1.04
61 | U8A G9U U10G U11C C12U C13U | 1.08
62 | U8A G9U U10G U11C C12U C13A | 1.04
63 | U8A G9U U10G U11C C12U C13G | 1.05

Row | Variant | aptazyme ON/OFF ratio
64 | U8A U10A U11A C12G C13G | 1.18
65 | U8A U10A U11A C12G C13U | 1.13
66 | U8A U10A U11A C12G C13A | 1.12
67 | U8A G9U U10G U11G C12G C13A | 1.05
68 | U8A G9U U10G U11G C12G C13G | 1.32
69 | U8A G9U U10G U11G C12G C13U | 1.34
70 | U8A U10C U11A C12A C13A | 1.21
71 | U8A U10C U11A C12A C13U | 1.3
72 | U8A U10C U11A C12A C13G | 1.1
73 | U8A G9U U11C C13G | 1.02
74 | U8A G9U U11C C13U | 1.03
75 | U8A G9U U11C C13A | 1.04
76 | U8A G9U U10G U11A C12U C13G | 1.16
77 | U8A G9U U10G U11A C12U C13U | 1.12
78 | U8A G9U U10G U11A C12U C13A | 1.13
79 | U8A G9U U10G U11G C12U | 1.28
80 | U8A G9U U10G U11G C12G | 1.27
81 | U8A G9U U10G U11G C12A | 1.07
82 | U8A G9U U11A C13U | 1.24
83 | U8A G9U U11A C13A | 1.1
84 | U8A G9U U11A C13G | 1.13
